Measurements reported in US20230204576A1.

What was measured:
[1] = molecular target: HLA A*03:01, labelled with Alexafluor 647 (human); test: microfluidic diffusional sizing, 25 nM HLA, non-linear binding fit
[2] = molecular target: HLA A*03:01, labelled with Alexafluor 647 (human); test: microfluidic diffusional sizing, global fit at 25 nM and 500 pM HLA

- Kd [1]: 0.961 nM
- binding site concentration B1 [1]: 13 nM
- Kd [2]: 0.466 nM
Substance: antibody W6/32
